Measurements as given in patent US20110239317A1 (Johns Hopkins, published 2011).

T1: mature C-terminal myostatin peptide (disulfide-linked C-terminal dimer), purified from CHO cell conditioned … (UniProt O14793 24-375, limits assumed, radio-iodinated (on tyrosine, residues not stated) in the receptor binding assay)
T1 construct: mature; also called GDF-8; mature C-terminal peptide
T1 sequence (looked up): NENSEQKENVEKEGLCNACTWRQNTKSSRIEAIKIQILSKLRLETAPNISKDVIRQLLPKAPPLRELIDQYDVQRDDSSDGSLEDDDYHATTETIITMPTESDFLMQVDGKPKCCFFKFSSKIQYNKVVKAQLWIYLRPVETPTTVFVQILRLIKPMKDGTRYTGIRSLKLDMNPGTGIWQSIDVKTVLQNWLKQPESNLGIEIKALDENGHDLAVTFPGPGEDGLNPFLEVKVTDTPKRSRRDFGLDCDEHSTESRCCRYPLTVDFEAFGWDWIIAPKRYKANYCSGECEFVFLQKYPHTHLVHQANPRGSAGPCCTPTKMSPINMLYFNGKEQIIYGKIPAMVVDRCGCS

B1: activin type IIB receptor (Act RIIB) expressed on transfected COS cells (receptor)
chain: SGRGEAETRECIYYNANWELERTNQSGLERCEGEQDKRLHCYASWRNSSGTIELVKKGCWLDDFNCYDRQECVATEENPQVYFCCCEGNFCNERFTHLPEAGGPEVTYEPPPTAPTLLTVLAYSLLPIGGLSLIVLLAFWMYRHRKPPYGHVDIHEDPGPPPPSPLVGLKPLQLLEIKARGRFGCVWKAQLMNDFVAVKIFPLQDKQSWQSEREIFSTPGMKHENLLQFIAAEKRGSNLEVELWLITAFHDKGSLTDYLKGNIITWNELCHVAETMSRGLSYLHEDVPWCRGEGHKPSIAHRDFKSKNVLLKSDLTAVLADFGLAVRFEPGKPPGDTHGQVGTRRYMAPEVLEGAINFQRDAFLRIDMYAMGLVLWELVSRCKAADGPVDEYMLPFEEEIGQHPSLEELQEVVVHKKMRPTIKDHWLKHPGLAQLCVTIEECWDHDAEARLSAGCVEERVSLIRRSVNGTTSDCLVSLVTSVTNVDLPPKESSI

Assays:
[1] = molecular target: GDF-8 receptor (cell surface binding proteins on L6 and G-8 myoblasts); experiment: receptor-ligand binding assay with I-125 GDF-8 on myoblasts
[2] = molecular target: GDF-8 receptor (cell surface binding proteins on L6 and G-8 myoblasts); experiment: receptor-ligand binding assay with I-125 GDF-8 on L6 myoblasts
[3] = molecular target: T1, mature C-terminal myostatin peptide …; experiment: radio-iodinated myostatin on COS cells transfected with Act RIIB, Scatchard analysis

Molecule	Kd [1]	receptors/cell (receptors/cell) [2]	Kd [3]
recombinant human GDF-8 (rhGDF-8) homodimer (from UniProt O14793 267-374) (ligand)	0.37 nM	5000	–
B1	–	–	~5 nM
